This note sets out measurements from PMC3315527 (2012).

Assay [1] deals with chaperone receptors within native chloroplast membranes (dynamic TIRE). The experiment in a line: native chloroplast membranes.
For a further assay, the target named is T1, OEP61 (recombinant) (Arabidopsis thaliana).
T1 chain: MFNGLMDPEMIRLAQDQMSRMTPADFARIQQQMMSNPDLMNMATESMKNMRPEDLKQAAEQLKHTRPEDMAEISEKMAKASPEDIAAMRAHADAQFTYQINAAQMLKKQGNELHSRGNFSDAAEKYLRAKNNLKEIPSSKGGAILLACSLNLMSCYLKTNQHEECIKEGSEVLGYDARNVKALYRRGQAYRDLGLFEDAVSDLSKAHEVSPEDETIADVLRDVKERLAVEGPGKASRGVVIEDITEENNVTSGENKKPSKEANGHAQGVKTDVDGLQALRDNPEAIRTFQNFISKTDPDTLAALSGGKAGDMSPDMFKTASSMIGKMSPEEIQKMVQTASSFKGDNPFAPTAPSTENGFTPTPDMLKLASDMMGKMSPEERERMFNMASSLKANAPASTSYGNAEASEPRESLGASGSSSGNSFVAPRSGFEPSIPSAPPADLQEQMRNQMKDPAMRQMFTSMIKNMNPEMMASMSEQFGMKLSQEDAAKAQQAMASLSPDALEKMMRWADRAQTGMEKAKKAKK
The experiment in a line: from ref 7.

For the next assay, the target named is T2, Toc64 (recombinant) (Pisum sativum).
T2 chain: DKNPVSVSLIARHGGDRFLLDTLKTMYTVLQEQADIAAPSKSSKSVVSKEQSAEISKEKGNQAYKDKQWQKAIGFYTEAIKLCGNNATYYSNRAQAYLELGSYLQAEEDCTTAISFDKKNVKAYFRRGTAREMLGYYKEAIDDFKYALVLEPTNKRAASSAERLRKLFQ
The experiment in a line: from ref 7.

B1: Hsp70-1 (At5g02500), full length (natural protein)
chain: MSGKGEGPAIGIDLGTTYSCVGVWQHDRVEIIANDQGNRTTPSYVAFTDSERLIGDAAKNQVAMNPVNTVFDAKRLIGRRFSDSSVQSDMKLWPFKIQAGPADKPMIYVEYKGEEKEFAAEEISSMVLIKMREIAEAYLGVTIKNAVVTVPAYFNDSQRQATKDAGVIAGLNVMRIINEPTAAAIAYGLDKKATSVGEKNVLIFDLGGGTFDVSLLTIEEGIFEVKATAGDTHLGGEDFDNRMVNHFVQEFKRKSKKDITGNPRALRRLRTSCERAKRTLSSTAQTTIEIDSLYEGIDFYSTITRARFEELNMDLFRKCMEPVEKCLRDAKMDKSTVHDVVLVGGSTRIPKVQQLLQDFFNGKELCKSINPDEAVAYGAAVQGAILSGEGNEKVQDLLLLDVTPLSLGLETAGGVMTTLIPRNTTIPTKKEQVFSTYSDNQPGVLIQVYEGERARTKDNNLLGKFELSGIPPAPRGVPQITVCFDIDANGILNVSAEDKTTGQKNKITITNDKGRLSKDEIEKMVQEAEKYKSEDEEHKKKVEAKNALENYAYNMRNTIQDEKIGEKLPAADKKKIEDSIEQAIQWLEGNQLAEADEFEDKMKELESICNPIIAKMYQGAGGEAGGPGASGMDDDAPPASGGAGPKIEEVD
B1 yielded an equilibrium dissociation constant (Kd) in assay [1] of 109 nM. The Ka with OEP61 (recombinant) worked out at 1.03e+09 M⁻¹.

B2: Hsp90-2 (At5g56030), full length (natural protein)
chain: not shown
As for B2, binding in assay [1] was put at a Kd of 114 nM. Further, the Ka with Toc64 (recombinant) came to 7.6e+08 M⁻¹.

In general, Kd refers to the equilibrium constant for the complex coming apart. Low values mean a tighter complex, high ones a looser complex.
